# In the supplement of paper PMC10567573:
# B1: GNB5 (parent)
# chain: DINSVRYYPSGDAFASGSDDATCR
# B2: PPP2R2B (parent)
# chain: RNTKRDVTLEASRENSKPRAILKP
# Variants of: B1
# Assay: protein stability index of a GFP-peptide fusion (GPS, HEK-293T) (PSI 1-6); higher = more stable
# Settings: c terminus: a fixed tail appended
# 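Also: lentivirally expressed fusions sorted by FACS into six bins by GFP to DsRed ratio, PSI derived from sequencing read proportions per bin multiplied by bin number.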
row,Variant,protein stability index
1,AINSVRYYPSGDAFASGSDDATCR [D1A],4.18

# Variants of: B2
# Assay: as above
# Settings: c terminus: a fixed tail appended
row,Variant,protein stability index
1,RNTKRDVTLEASSENSKPRAILKP [R13S],4.91
2,RNTKRDVTLEASGENSKPRAILKP [R13G],5.06
3,RNTKRDVTLEASIENSKPRAILKP [R13I],4.53
4,RNTKRDVTLEASVENSKPRAILKP [R13V],4.67
5,RNTKRDVTLEASKENSKPRAILKP [R13K],4.69
6,RNTKRDVTLEASPENSKPRAILKP [R13P],4.46
7,RNTKRDVTLEASREYSKPRAILKP [N15Y],4.09
8,RNTKRDVTLEASRELSKPRAILKP [N15L],4.53
9,RNTKRDVTLEASREQSKPRAILKP [N15Q],4.73
10,RNTKRDVTLEASREMSKPRAILKP [N15M],4.09
11,RNTKRDVTLEASREVSKPRAILKP [N15V],4.45
12,RNTKRDVTLEASRESSKPRAILKP [N15S],4.85
13,RNTKRDVTLEASREDSKPRAILKP [N15D],4.77
14,RNTKRDVTLEASREFSKPRAILKP [N15F],4.66
15,RNTKRDVTLEASREISKPRAILKP [N15I],4.59
16,RNTKRDVTLEASREKSKPRAILKP [N15K],4.82
17,RNTKRDVTLEASREESKPRAILKP [N15E],4.92
18,RPTKRDVTLEASRENSKPRAILKP [N2P],4.31
19,RVTKRDVTLEASRENSKPRAILKP [N2V],4.1
20,RLTKRDVTLEASRENSKPRAILKP [N2L],3.72
21,RTTKRDVTLEASRENSKPRAILKP [N2T],4.42
22,RWTKRDVTLEASRENSKPRAILKP [N2W],3.34
23,RSTKRDVTLEASRENSKPRAILKP [N2S],4.62
24,RMTKRDVTLEASRENSKPRAILKP [N2M],4.4

row,Variant,protein stability index
1,RQTKRDVTLEASRENSKPRAILKP [N2Q],4.06
2,RETKRDVTLEASRENSKPRAILKP [N2E],4.82
3,RNTKRDVTLEMSRENSKPRAILKP [A11M],4.36
4,RNTKRDVTLETSRENSKPRAILKP [A11T],4.44
5,RNTKRDVTLEQSRENSKPRAILKP [A11Q],4.28
6,RNTKRDVTLEISRENSKPRAILKP [A11I],3.92
7,RNTKRDVTLESSRENSKPRAILKP [A11S],4.67
8,RNTKRDVTLENSRENSKPRAILKP [A11N],4.3
9,RNTKRDVTLEASRWNSKPRAILKP [E14W],3.87
10,RNTKRDVTLEASRHNSKPRAILKP [E14H],4.49
11,RNTKRDVTLEASRNNSKPRAILKP [E14N],4.72
12,RNTKRDVTLEASRSNSKPRAILKP [E14S],4.45
13,RNTKRDVTLEASRLNSKPRAILKP [E14L],4.04
14,RNTKRDVTLEASRTNSKPRAILKP [E14T],4.58
15,RNTKRDVTLEASRFNSKPRAILKP [E14F],3.88
16,RNTKRDVTLEASRENSKQRAILKP [P18Q],4.76
17,RNTKRDVTLEASRENSKKRAILKP [P18K],4.73
18,RNTKRDVTLEASRENSKYRAILKP [P18Y],3.62
19,RNTKRDVTLEASRENSKSRAILKP [P18S],4.72
20,RNTKRDVTLEASRENSKVRAILKP [P18V],4.32
21,RNTKRDVTLEASRENSKHRAILKP [P18H],4.11
22,RNTKRDVTLEASRENSKFRAILKP [P18F],3.79
23,RNTKRDVTLEASRENLKPRAILKP [S16L],4.16
24,RNTKRDVTLEASRENPKPRAILKP [S16P],4.96

row,Variant,protein stability index
1,RNTKRDVTLEASRENWKPRAILKP [S16W],3.37
2,RNTKRDVTLEASRENVKPRAILKP [S16V],4.24
3,RNTKRDVTLEASRENHKPRAILKP [S16H],4.57
4,RNTKRDVTLCASRENSKPRAILKP [E10C],3.86
5,RNTKRDVTLRASRENSKPRAILKP [E10R],4.01
6,RNTKRDVTLGASRENSKPRAILKP [E10G],4.32
7,RNTKRDVTLTASRENSKPRAILKP [E10T],3.7
8,RNTKRDVTLLASRENSKPRAILKP [E10L],3.6
9,RNTKRDVTLFASRENSKPRAILKP [E10F],3.49
10,RNTKRDVTLYASRENSKPRAILKP [E10Y],4
11,RNTKRDVHLEASRENSKPRAILKP [T8H],4.35
12,RNTKRDVCLEASRENSKPRAILKP [T8C],4.2
13,RNTKRDVLLEASRENSKPRAILKP [T8L],4.62
14,RNTKRDVILEASRENSKPRAILKP [T8I],4.35
15,RNTKRDVRLEASRENSKPRAILKP [T8R],4.68
16,RNTKRDVVLEASRENSKPRAILKP [T8V],4.25
17,RNTKRDVDLEASRENSKPRAILKP [T8D],5.02
18,RNTKRDVNLEASRENSKPRAILKP [T8N],4.98
19,RNTKRDVYLEASRENSKPRAILKP [T8Y],4.31
20,RNTKRDVPLEASRENSKPRAILKP [T8P],4.76
21,RNQKRDVTLEASRENSKPRAILKP [T3Q],4.75
22,RNKKRDVTLEASRENSKPRAILKP [T3K],4.91
23,RNVKRDVTLEASRENSKPRAILKP [T3V],4.57
24,RNDKRDVTLEASRENSKPRAILKP [T3D],4.81

row,Variant,protein stability index
1,RNRKRDVTLEASRENSKPRAILKP [T3R],4.45
2,RNSKRDVTLEASRENSKPRAILKP [T3S],4.61
3,RNEKRDVTLEASRENSKPRAILKP [T3E],4.88
4,RNTKRDVTLEASRENSKPRAILPP [K23P],4.5
5,RNTKRDVTLEASRENSKPRAILEP [K23E],4.5
6,RNTKRDVTLEASRENSKPRAILLP [K23L],3.91
7,RNTKRDVTLEASRENSKPRAILVP [K23V],4.31
8,RNTKRDVTLEASRENSKPRAILWP [K23W],4.33
9,RNTKRDVTLEASRENSKPRAILGP [K23G],4.48
10,RNTKRDVTLEASRENSKPRAILQP [K23Q],4.89
11,RNTKRDVTLEASRENSKPRAIIKP [L22I],4.2
12,RNTKRDVTLEASRENSKPRAIHKP [L22H],4.8
13,RNTKRDVTLEASRENSKPRAIKKP [L22K],5.11
14,RNTKRDVTLEASRENSKPRAIWKP [L22W],3.98
15,RNTKRDVTLEASRENSKPRAILKN [P24N],4.82
16,RNTKRDVTLEASRENSKPRAILKM [P24M],4.06
17,RNTKRDVTLEASRENSKPRAILKV [P24V],4
18,RNTKRDVTLEASRENSKPRAILKT [P24T],4.88
19,RNTKRDVTLEASRENSKPRAILKW [P24W],3.55
20,RNTKRDVTLEASRENSKPRAILKR [P24R],4.13
21,RNTKRDVTLEASRENSKPRAILKY [P24Y],3.58
